From patent US12072338B2, “Pharmaceutical peptides for the treatment of inflammatory diseases” (PROTAGONISTS LTD., priority 2007, dated 2024)

Columns and labels:
[1] = molecular target: T1, IP-10 (Homo sapiens, UniProt P02778); assay: Micro-array analysis of chemokine binding peptides: IP-10; conditions: limit = start of the upper 75% of that peptide's response range
T1 construct: purchased 300-12
T1 sequence (P02778 22-98): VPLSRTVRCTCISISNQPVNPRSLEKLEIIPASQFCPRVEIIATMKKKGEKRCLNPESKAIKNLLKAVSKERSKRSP
Method: (§1) (1) Printing: Chemokine (CK) solution (in water) was serially diluted with Print Reagent (GenTel BioSurfaces USA) to final concentrations of 50 μg and 25 μg/ml. BSA/BSA-Biotin control solutions (in water) were diluted with Print Reagent to 100 μg/ml. Amplified stock of M13 phage control (M13KEgIII Cloning Vector, New England Biolabs, Cat.No.E8101S) was stored in Tris Buffered Saline (TBS; pH7.5, 4° C.) and diluted with Print Reagent to the working titre (10^8 pfu/μl). An automated spotting robot (16 pin print tool, 0.4 mm head; BioRobotics, UK) was used to print the CK/BSA control/M13 control, 5 repeats per sample (CK 25 μg/ml and 50 μg/ml; BSA 100 μg/ml; M13 20 μl), on PATH Protein Microarray Slides (GenTel, Prod.No. 2-1005/-1025) at […], and 50-70% relative humidity. Printed micro-array slides were stored at Room Temperature (RT) or 4° C. for at least 24 h before use.
(§2) (2) Blocking: Block Buffer (500 μl/partition; PATHblock, GenTel, Prod.No. 2-1014) was applied to the slide for 1 hour at room temp (RT). After removal of Block Buffer, the slide was air dried for 25 minutes;
(§3) (3) Phage Presented Peptide Binding: Amplified recombinant phage stock was stored in TBS and diluted with Wash Buffer to working titer (10^7 pfu/μl). Recombinant phage suspension (300 μl) was applied per partition and incubated at RT for 1 hour with gentle agitation.
(§4) (4) First Washing: The slides were washed twice with Wash Buffer 300 μl/partition).
(§5) (5) Primary Antibody (Ab) Labeling: The slides were incubated with the Primary Ab (1 mg/ml diluted ×2500 (Wash Reagent), 300 μl; Mouse Anti-M13 monoclonal Ab; Amersham Biosciences, UK; Product Code 27-9420-01) for 45 minutes at RT.
(§6) (6) Second Washing: The slides were washed twice with Wash Buffer (300 μl/partition).
(§7) (7) Secondary Ab Labeling: The slides were incubated with Secondary Ab (1.5 mg/ml diluted ×5000 (Wash Reagent), 300 μl; Cy3-conjugated AffiniPure Goat Anti-Mouse IgG; Jackson ImmunoReserch Labs, USA; Product Code 115-165-062).
(§8) (8) Third Washing: The slides were washed twice with Wash Buffer (300 μl/partition).
(§9) (9) Rinse: the slides were rinsed twice with Rinse Buffer (PATHrinse, GenTel, Prod.No. 2-1018) then dried well.
(§10) (10) Scanning: The peptide-bound, labeled slide was scanned (Laser Intensity 80%, Gain 80%, Resolution 10 μm) with a ScanArray Life Scanner (Packard BioChip Technologies, USA).
(§11) (11) Analysis: Quantitative analysis of micro-array was performed by the SpotReader program of Niles Scientific (USA) and presented as Relative Fluorescence (RF) as a function of CK concentration. Micro-array readout (Cy3 fluorescence) was quantified to determine the relative binding affinities of a CBP for the CKs and by inference, the specificity of the CBP for binding to a CK.

[2] = molecular target: T2, Eotaxin 3 (Homo sapiens, UniProt Q9Y258); assay: Micro-array analysis of chemokine binding peptides: Eotaxin 3
T2 construct: purchased 300-48
T2 sequence (Q9Y258 24-94): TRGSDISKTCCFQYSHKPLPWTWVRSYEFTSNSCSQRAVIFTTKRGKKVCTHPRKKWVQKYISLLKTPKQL
Method: as §1, §2, §3, §4, §5, §6, §7, §8, §9, §10, §11

[3] = molecular target: T3, TECK (Homo sapiens, UniProt O15444); assay: Micro-array analysis of chemokine binding peptides: TECK
T3 construct: purchased 300-45
T3 sequence (O15444 24-150): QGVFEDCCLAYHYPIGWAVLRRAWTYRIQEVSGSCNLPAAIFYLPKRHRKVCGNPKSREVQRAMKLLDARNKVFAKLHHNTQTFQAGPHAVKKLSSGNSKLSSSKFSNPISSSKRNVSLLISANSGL
Method: as §1, §2, §3, §4, §5, §6, §7, §8, §9, §10, §11

[4] = molecular target: T4, MCP-4 (Homo sapiens, UniProt Q99616); assay: Micro-array analysis of chemokine binding peptides: MCP-4; conditions: limit = start of the upper 75% of that peptide's response range
T4 construct: purchased 300-24
T4 sequence (Q99616 17-98): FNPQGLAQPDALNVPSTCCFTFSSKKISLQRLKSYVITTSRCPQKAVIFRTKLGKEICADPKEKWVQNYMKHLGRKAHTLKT
Method: as §1, §2, §3, §4, §5, §6, §7, §8, §9, §10, §11

[5] = molecular target: T5, Mig (Homo sapiens, UniProt Q07325); assay: Micro-array analysis of chemokine binding peptides: Mig
T5 construct: purchased 300-26
T5 sequence (Q07325 23-125): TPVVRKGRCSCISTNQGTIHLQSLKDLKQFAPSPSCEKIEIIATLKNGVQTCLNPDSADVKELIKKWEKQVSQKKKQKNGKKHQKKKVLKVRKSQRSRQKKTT
Method: as §1, §2, §3, §4, §5, §6, §7, §8, §9, §10, §11

[6] = molecular target: T6, MCP-2 (Homo sapiens, UniProt P80075); assay: Micro-array analysis of chemokine binding peptides: MCP-2
T6 construct: purchased 300-15
T6 sequence (P80075 24-99): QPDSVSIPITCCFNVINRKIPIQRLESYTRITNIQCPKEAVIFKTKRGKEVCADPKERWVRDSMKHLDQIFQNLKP
Method: as §1, §2, §3, §4, §5, §6, §7, §8, §9, §10, §11

[7] = molecular target: T7, Lymphotactin (Homo sapiens, UniProt P47992); assay: Micro-array analysis of chemokine binding peptides: Lymphotactin
T7 construct: purchased 300-20
T7 sequence (P47992 22-114): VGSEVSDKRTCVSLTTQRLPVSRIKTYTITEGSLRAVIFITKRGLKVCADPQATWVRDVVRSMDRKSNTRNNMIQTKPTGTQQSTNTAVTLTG
Method: as §1, §2, §3, §4, §5, §6, §7, §8, §9, §10, §11

[8] = molecular target: T8, Fractalkine (Homo sapiens, UniProt P78423); assay: Micro-array analysis of chemokine binding peptides: Fractalkine
T8 construct: purchased 300-31
T8 sequence (P78423 25-100 limits assumed): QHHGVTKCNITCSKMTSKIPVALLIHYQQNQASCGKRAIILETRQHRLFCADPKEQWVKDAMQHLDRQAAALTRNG
Method: as §1, §2, §3, §4, §5, §6, §7, §8, §9, §10, §11

[9] = system: SDF1; assay: Micro-array analysis of chemokine binding peptides: SDF1 (isoform not given)
Sequence of SDF1 (P48061 22-89 limits assumed): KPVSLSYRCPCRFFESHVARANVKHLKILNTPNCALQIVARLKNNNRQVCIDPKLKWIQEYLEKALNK
Method: as §1, §2, §3, §4, §5, §6, §7, §8, §9, §10, §11

[10] = molecular target: T9, BCA-1 (Homo sapiens, UniProt O43927); assay: Micro-array analysis of chemokine binding peptides: BCA-1
T9 construct: purchased 300-47
T9 sequence (O43927 23-109): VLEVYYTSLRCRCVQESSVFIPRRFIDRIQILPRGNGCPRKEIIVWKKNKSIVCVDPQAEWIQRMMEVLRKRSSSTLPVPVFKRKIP
Method: as §1, §2, §3, §4, §5, §6, §7, §8, §9, §10, §11

[11] = system: IL-8; assay: Micro-array analysis of chemokine binding peptides: IL-8
Sequence of IL-8 (P10145 28-99 limits assumed): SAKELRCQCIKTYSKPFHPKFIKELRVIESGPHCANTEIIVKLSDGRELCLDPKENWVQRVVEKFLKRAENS
Method: as §1, §2, §3, §4, §5, §6, §7, §8, §9, §10, §11

[12] = molecular target: T10, Eotaxin (Homo sapiens, UniProt P51671); assay: Micro-array analysis of chemokine binding peptides: Eotaxin
T10 construct: purchased 300-21
T10 sequence (P51671 24-97): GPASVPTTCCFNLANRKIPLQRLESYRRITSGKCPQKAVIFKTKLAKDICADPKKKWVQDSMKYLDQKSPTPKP
Method: as §1, §2, §3, §4, §5, §6, §7, §8, §9, §10, §11

[13] = molecular target: T11, I-TAC (Homo sapiens, UniProt O14625); assay: Micro-array analysis of chemokine binding peptides: I-TAC
T11 construct: purchased 300-46
T11 sequence (O14625 22-94): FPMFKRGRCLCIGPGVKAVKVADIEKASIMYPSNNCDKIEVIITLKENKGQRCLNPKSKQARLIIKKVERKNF
Method: as §1, §2, §3, §4, §5, §6, §7, §8, §9, §10, §11

[14] = molecular target: T12, I-309 (Homo sapiens, UniProt P22362); assay: Micro-array analysis of chemokine binding peptides: I-309
T12 construct: purchased 300-37
T12 sequence (P22362 24-96): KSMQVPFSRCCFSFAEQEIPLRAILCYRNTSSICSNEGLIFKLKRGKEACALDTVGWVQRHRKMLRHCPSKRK
Method: as §1, §2, §3, §4, §5, §6, §7, §8, §9, §10, §11

[15] = molecular target: T13, RANTES (Homo sapiens, UniProt P13501); assay: Micro-array analysis of chemokine binding peptides: RANTES; conditions: limit = start of the upper 75% of that peptide's response range
T13 construct: purchased 300-06
T13 sequence (P13501 24-91): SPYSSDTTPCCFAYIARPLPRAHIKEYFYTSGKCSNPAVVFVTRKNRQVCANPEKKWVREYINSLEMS
Method: as §1, §2, §3, §4, §5, §6, §7, §8, §9, §10, §11

[16] = molecular target: T14, GRO-β (Homo sapiens, UniProt P19875); assay: Micro-array analysis of chemokine binding peptides: GRO-β
T14 construct: purchased 300-39
T14 sequence (P19875 35-107): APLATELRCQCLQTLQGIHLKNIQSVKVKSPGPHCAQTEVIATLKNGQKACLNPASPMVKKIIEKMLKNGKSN
Method: as §1, §2, §3, §4, §5, §6, §7, §8, §9, §10, §11

[17] = molecular target: T15, MDC 69 (Homo sapiens, UniProt O00626); assay: Micro-array analysis of chemokine binding peptides: MDC 69
T15 construct: MDC(69aa), (CCL22 cat.no.300-36A); purchased 300-36A
T15 sequence (O00626 25-93): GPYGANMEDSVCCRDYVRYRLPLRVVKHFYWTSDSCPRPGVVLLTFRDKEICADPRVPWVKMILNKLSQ
Method: as §1, §2, §3, §4
(5) Primary Antibody (Ab) Labeling: The slides were incubated with the Primary Ab (1 mg/ml diluted ×2500 (Wash Reagent), 300 μl; Mouse Anti-M13 monoclonal Ab; Amersham Biosciences, UK; Product Code 27-9420-01) for 45 minutes at RT. […]
as §11

[18] = molecular target: T16, Eotaxin 2 (Homo sapiens, UniProt O00175); assay: Micro-array analysis of chemokine binding peptides: Eotaxin 2
T16 construct: purchased 300-33
T16 sequence (O00175 27-119): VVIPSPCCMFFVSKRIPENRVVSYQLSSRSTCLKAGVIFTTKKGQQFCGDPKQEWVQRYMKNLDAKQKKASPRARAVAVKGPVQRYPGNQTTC
Method: as §1, §2, §3, §4, §5, §6, §7, §8, §9, §10, §11

[19] = molecular target: T17, MCP-1 (Homo sapiens, UniProt P13500); assay: Micro-array analysis of chemokine binding peptides: MCP-1
T17 construct: purchased 300-04
T17 sequence (P13500 24-99): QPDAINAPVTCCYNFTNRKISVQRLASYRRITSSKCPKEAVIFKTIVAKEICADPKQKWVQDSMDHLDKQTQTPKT
Method: as §1, §2, §3, §4, §5, §6, §7, §8, §9, §10, §11

[20] = limit = start of the upper 75% of that peptide's response range

WVFG (listed as Homo sapiens) [Ph-p8.4]
> 15,000 RFU: binding to IP-10 with relatively high affinity (Relative Fluorescence Units) [1] | binding to Eotaxin 3 with relatively high affinity (Relative Fluorescence Units) [2, 20] | binding to MCP-4 with relatively high affinity (Relative Fluorescence Units) [4] | binding to Mig with relatively high affinity (Relative Fluorescence Units) [5, 20] | binding to MCP-2 with relatively high affinity (Relative Fluorescence Units) [6, 20] | binding to IL-8 with relatively high affinity (Relative Fluorescence Units) [11, 20] | binding to Eotaxin with relatively high affinity (Relative Fluorescence Units) [12, 20] | binding to I-TAC with relatively high affinity (Relative Fluorescence Units) [13, 20] | binding to I-309 with relatively high affinity (Relative Fluorescence Units) [14, 20]
bound: binding to TECK, stated in words [3] | binding to Lymphotactin, stated in words [7] | binding to Fractalkine, stated in words [8] | binding to SDF1 (isoform not given), stated in words [9] | binding to BCA-1, stated in words [10]

HHTCSLHFP [Ph-p16]
bound: binding to Eotaxin 3, stated in words [2] | binding to TECK, stated in words [3] | binding to Mig, stated in words [5] | binding to MCP-2, stated in words [6] | binding to Lymphotactin, stated in words [7] | binding to Fractalkine, stated in words [8] | binding to BCA-1, stated in words [10] | binding to GRO-β, stated in words [16] | binding to MDC 69, stated in words [17] | binding to IL-8, stated in words [11] | binding to Eotaxin, stated in words [12] | binding to Eotaxin 2, stated in words [18] | binding to I-TAC, stated in words [13] | binding to I-309, stated in words [14] | binding to MCP-1, stated in words [19]
> 15,000 RFU: binding to MCP-4 with relatively high affinity (Relative Fluorescence Units) [4] | binding to RANTES with relatively high affinity (Relative Fluorescence Units) [15]
